Changes are numbered by the printed parent chain.
B1: 107 (CEA-Knob-Fab-+Hole) (bispecific antibody, human IgG4 S228P, kappa, F234A L235A)
heavy: EVQLVESGGGFVQAGESLTLSCTSSTLTFTPYRMAWYRQAPGKQRDLVADISSGDGRTTNYADFAKGRFTISRDNIKNTVFLRMTNLKPEDTAVYYCNTFVSFVGIARSWGQGTQVTVSSESKYGPPCPPCPAPEAAGGPSVFLFPPKPKDTLMISRTPEVTCVVVDVSQEDPEVQFNWYVDGVEVHNAKTKPREEQFNSTYRVVSVLTVLHQDWLNGKEYKCKVSNKGLPSSIEKTISKAKGQPREPQVYTLPPCQEEMTKNQVSLWCLVKGFYPSDIAVEWESNGQPENNYKTTPPVLDSDGSFFLYSRLTVDKSRWQEGNVFSCSVMHEALHNHYTQKSLSLSLGGGGSGGGGEVKLLESGGGLVQPKGSLKLSCAASGFTFNTYAMNWVRQAPGKGLEWVARIRSKYNNYATYYADSVKDRFTISRDDSQSILYLQMNNLKTEDTAMYYCVRHGNFGNSYVSWFAYWGQGTLVTVSSASTKGPSVFPLAPCSRSTSESTAALGCLVKDYFPEPVTVSWNSGALTSGVHTFPAVLQSSGLYSLSSVVTVPSSSLGTKTYTCNVDHKPSNTKVDKRV
chain: ESKYGPPCPPCPAPEAAGGPSVFLFPPKPKDTLMISRTPEVTCVVVDVSQEDPEVQFNWYVDGVEVHNAKTKPREEQFNSTYRVVSVLTVLHQDWLNGKEYKCKVSNKGLPSSIEKTISKAKGQPREPQVCTLPPSQEEMTKNQVSLSCAVKGFYPSDIAVEWESNGQPENNYKTTPPVLDSDGSFFLVSRLTVDKSRWQEGNVFSCSVMHEALHNRFTQKSLSLSL
light: QAVVTQESALTTSPGETVTLTCRSSTGAVTTSNYANWVQEKPDHLFTGLIGGTNKRAPGVPARFSGSLIGDKAALTITGAQTEDEAIYFCALWYSNLWVFGGGTKVEIKRTVAAPSVFIFPPSDEQLKSGTASVVCLLNNFYPREAKVQWKVDNALQSGNSQESVTEQDSKDSTYSLSSTLTLSKADYEKHKVYACEVTHQGLSSPVTKSFNRGEC
notes: TA1 Fab, C17 VHH, IgG4 Fc KIH
B2: 110 (CEA-Knob+Hole-Fab) (bispecific antibody, human IgG4 S228P, kappa, F234A L235A)
chain: EVQLVESGGGFVQAGESLTLSCTSSTLTFTPYRMAWYRQAPGKQRDLVADISSGDGRTTNYADFAKGRFTISRDNIKNTVFLRMTNLKPEDTAVYYCNTFVSFVGIARSWGQGTQVTVSSESKYGPPCPPCPAPEAAGGPSVFLFPPKPKDTLMISRTPEVTCVVVDVSQEDPEVQFNWYVDGVEVHNAKTKPREEQFNSTYRVVSVLTVLHQDWLNGKEYKCKVSNKGLPSSIEKTISKAKGQPREPQVYTLPPCQEEMTKNQVSLWCLVKGFYPSDIAVEWESNGQPENNYKTTPPVLDSDGSFFLYSRLTVDKSRWQEGNVFSCSVMHEALHNHYTQKSLSLSL
heavy: ESKYGPPCPPCPAPEAAGGPSVFLFPPKPKDTLMISRTPEVTCVVVDVSQEDPEVQFNWYVDGVEVHNAKTKPREEQFNSTYRVVSVLTVLHQDWLNGKEYKCKVSNKGLPSSIEKTISKAKGQPREPQVCTLPPSQEEMTKNQVSLSCAVKGFYPSDIAVEWESNGQPENNYKTTPPVLDSDGSFFLVSRLTVDKSRWQEGNVFSCSVMHEALHNRFTQKSLSLSLGGGGSGGGGSEVKLLESGGGLVQPKGSLKLSCAASGFTFNTYAMNWVRQAPGKGLEWVARIRSKYNNYATYYADSVKDRFTISRDDSQSILYLQMNNLKTEDTAMYYCVRHGNFGNSYVSWFAYWGQGTLVTVSSASTKGPSVFPLAPCSRSTSESTAALGCLVKDYFPEPVTVSWNSGALTSGVHTFPAVLQSSGLYSLSSVVTVPSSSLGTKTYTCNVDHKPSNTKVDKRV
light: B1 light
notes: TA1 Fab, C17 VHH, IgG4 Fc KIH
B3: 108 (Knob-Fab+CEA-Hole) (bispecific antibody, human IgG4 S228P, kappa, F234A L235A)
heavy: B2 heavy with C131Y, S136C, S148W, A150L, V189Y, R217H, F218Y
chain: B2 chain with Y251C, C256S, W268S, L270A, Y309V, H337R, Y338F
light: B1 light
notes: TA1 Fab, C17 VHH, IgG4 Fc KIH
B4: 109 (Knob-Fab+Hole-CEA) (bispecific antibody, human IgG4 S228P, kappa, F234A L235A)
heavy: B2 heavy with C131Y, S136C, S148W, A150L, V189Y, R217H, F218Y
chain: ESKYGPPCPPCPAPEAAGGPSVFLFPPKPKDTLMISRTPEVTCVVVDVSQEDPEVQFNWYVDGVEVHNAKTKPREEQFNSTYRVVSVLTVLHQDWLNGKEYKCKVSNKGLPSSIEKTISKAKGQPREPQVCTLPPSQEEMTKNQVSLSCAVKGFYPSDIAVEWESNGQPENNYKTTPPVLDSDGSFFLVSRLTVDKSRWQEGNVFSCSVMHEALHNRFTQKSLSLSLGGGGSGGGGSEVQLVESGGGFVQAGESLTLSCTSSTLTFTPYRMAWYRQAPGKQRDLVADISSGDGRTTNYADFAKGRFTISRDNIKNTVFLRMTNLKPEDTAVYYCNTFVSFVGIARSWGQGTQVTVSS
light: B1 light
notes: TA1 Fab, C17 VHH, IgG4 Fc KIH
B5: 111 (Knob+CEA-Hole-Fab) (bispecific antibody, human IgG4 S228P, kappa, F234A L235A)
chain: B1 chain with C131Y, S136C, S148W, A150L, V189Y, R217H, F218Y
heavy: EVQLVESGGGFVQAGESLTLSCTSSTLTFTPYRMAWYRQAPGKQRDLVADISSGDGRTTNYADFAKGRFTISRDNIKNTVFLRMTNLKPEDTAVYYCNTFVSFVGIARSWGQGTQVTVSSESKYGPPCPPCPAPEAAGGPSVFLFPPKPKDTLMISRTPEVTCVVVDVSQEDPEVQFNWYVDGVEVHNAKTKPREEQFNSTYRVVSVLTVLHQDWLNGKEYKCKVSNKGLPSSIEKTISKAKGQPREPQVCTLPPSQEEMTKNQVSLSCAVKGFYPSDIAVEWESNGQPENNYKTTPPVLDSDGSFFLVSRLTVDKSRWQEGNVFSCSVMHEALHNRFTQKSLSLSLGGGGSGGGGSEVKLLESGGGLVQPKGSLKLSCAASGFTFNTYAMNWVRQAPGKGLEWVARIRSKYNNYATYYADSVKDRFTISRDDSQSILYLQMNNLKTEDTAMYYCVRHGNFGNSYVSWFAYWGQGTLVTVSSASTKGPSVFPLAPCSRSTSESTAALGCLVKDYFPEPVTVSWNSGALTSGVHTFPAVLQSSGLYSLSSVVTVPSSSLGTKTYTCNVDHKPSNTKVDKRV
light: B1 light
notes: TA1 Fab, C17 VHH, IgG4 Fc KIH

Each binder was assayed against T1, human CD3ε/δ (ACRO systems, CDD-H52W1) (human, UniProt P07766 23-126; P04234 22-105) (assay: serum-stability ELISA, Day 5 vs Day 0).
T1 construct: bought recombinant heterodimer; also called human CD3 epsilon/delta; Human CD3ε/CD3δ
Experimental: (§1) The samples to be tested were centrifuged at 4° C. at 12000 rpm for 30 minutes to remove the precipitate. 200 μl of each sample to be tested (0.5 mg/ml) was collected in a 1.5 ml Eppendorf tube. An equal volume of human serum (GEMINI, H2OYOOK) was added, mixed thoroughly, and the mixture was incubated in a 37° C. constant temperature CO₂ incubator. For a total of 10 days, 40 μl samples was aspirated every day and stored at −20° C.
(§2) Enzyme-linked immunosorbent assay (ELISA) was used to test the bispecific antibodies' binding to human CEA and human CD3 epsilon/delta antigen. The steps are as follows: the antigen human CD3ε/δ (ACRO systems, CDD-H52W1) and the recombinant tumor antigen human CEA (CEACAM-5/CD66e, ACRO systems, CE5-H5226) were diluted to 1 μg/ml with PBS, and then added to the 96-well plate at 100 μl per well. The wells were coated overnight at 4° C. After washing 3 times with 0.05% PBST, 200 μl 5% skimmed milk powder was added to each well and incubated at 37° C. for 2 h. After washing 3 times with 0.05% PBST, 100 μl primary antibody sample (10 μg/ml) was added to each well, and incubated at 37° C. for 2 h. After washing 3 times with 0.05% PBST, 100 μl (1:6000) diluted secondary antibody goat anti-human Fc-HRP (sigma, A2170) was added to each well, incubated at room temperature for 1 h. After washing 8 times with 0.05% PBST, 50 μl TMB color developing solution was added to each well, and incubated at room temperature for 10-15 min. 50 μl 1 mM HCl was added to each well to stop the color development. 450 nm Absorbance (OD) was read.
(§3) The binding of antibodies to antigen was calculated according to the following formula: Binding (%)=[(ODdayn−ODb)/(ODday0−ODb)]×100%. ODdayn: experimental well (the protein was stored in the serum for n days); ODday0: control well (the protein was not stored in the serum); ODb: blank well (no primary antibody added).

Binding % | Binder
122% | B1
78.1% | B2
96.1% | B3
88% | B4
103% | B5

The binders below were run against T1, human CD3ε/δ (ACRO systems, CDD-H52W1) (assay: serum-stability ELISA, Day 9 vs Day 0).
Experimental: as §1, §2, §3

Binding % | Binder
118% | B1
77% | B2
98.5% | B3
83.3% | B4
96.5% | B5

Each binder was assayed against T1, human CD3ε/δ (ACRO systems, CDD-H52W1) (assay: serum-stability ELISA, Day 7 vs Day 0).
Experimental: as §1, §2, §3

Binding % | Binder
125% | B1
77.5% | B2
98.8% | B3
87.6% | B4
106% | B5

What follows are binders tested against T1, human CD3ε/δ (ACRO systems, CDD-H52W1) (assay: serum-stability ELISA, Day 2 vs Day 0).
Experimental: as §1, §2, §3

Binding % | Binder
123% | B1
74.3% | B2
98% | B3
88.5% | B4
99.3% | B5

The binders below were run against T1, human CD3ε/δ (ACRO systems, CDD-H52W1) (assay: serum-stability ELISA, Day 6 vs Day 0).
Experimental: as §1, §2, §3

Binding % | Binder
123% | B1
76.9% | B2
98.4% | B3
85.7% | B4
99.2% | B5

What follows are binders tested against T1, human CD3ε/δ (ACRO systems, CDD-H52W1) (assay: serum-stability ELISA, Day 1 vs Day 0).
Experimental: as §1, §2, §3

Binding % | Binder
118% | B1
68.5% | B2
93% | B3
97.5% | B4
93.2% | B5

Each binder was assayed against T1, human CD3ε/δ (ACRO systems, CDD-H52W1) (assay: serum-stability ELISA, Day 0 (reference)).
Experimental: as §1, §2, §3

Binding % | Binder
100% | B1
100% | B2
100% | B3
100% | B4
100% | B5

The binders below were run against T1, human CD3ε/δ (ACRO systems, CDD-H52W1) (assay: serum-stability ELISA, Day 10 vs Day 0).
Experimental: as §1, §2, §3

Binding % | Binder
102% | B1
56.1% | B2
66.7% | B3
62.1% | B4
78.2% | B5
